The labels stand for the following.
B1: Qb#5 Fab fragment (Fab, V domains shown)
VH: EVQLVQSGPGLVKPSETLSLTCTVSGGSISSTSYSWGWIRQPPGKGLEWIATVSYSGRSYSNPSLKSRVTTSVDTSKNQFSLRLGSVTAADTAVYYCARLYYIWRSYHSGRFDYWGQGTLVPVSS
VL: ELVLTQPPSVSGAPGQRVSISCTGSSSNIGARYDVHWYQQLPGTAPKLLIYGNTNRPSGVPDRFSGSKSGSSASLAITGLQAEDEADYYCQSYDRSLSGVVFGGGTKLTVLG
notes: domain: γ2 heavy chain Fd region; The Fd part is from human γ2; also called Qβ#5 Fab; pCB15-Qb#5-Fab product; not shown: human κ light chain constant region (vector pCMV-LC)
B2: Qb#2 Fab fragment (Fab, V domains shown)
VH: EVQLLESGPGLVKPSETLSLTCTVSGGSISSGNYYWSWIRQTPEKGLEWLGYVHYTGSSKLNPSLKSRVTISVDTYTNQFSLSLSSMTAADTAVYYCARGKNCANDICYIGSWFDPWGQGTLVTVSS
VL: ELGLTQPPSVSGAPGQRVTISCTGSSSNIGRFDVHWYQQLPGTAPKLLIYGNTNRPSGVPDRFSGSKSGSSASLAITGLQAEDEADYYCQSYDRSLSGVVFGGGTQLTVLG
notes: domain: γ2 heavy chain Fd region; The Fd part is from human γ2; also called Qβ#2 Fab; pCB15-Qb#2-Fab product; not shown: human κ light chain constant region (vector pCMV-LC)
B3: Qb#3 Fab fragment (Fab, V domains shown)
VH: QVQLQESGPGLVKPSETLSLTCTVSGGSISSGNYYWSWIRQTPEKGLEWLGYVHYTGSSKLNPSLKSRVTISVDTYTNQFSLSLSSMTAADTAVYYCARGKNCANDICYIGSWFDPWGQGTLVTVSS
VL: ELVMTQSPSSLSASVGDRVTITCRASQGVSRALAWYQQKPGNPPKLLIYDASNLQSGVPSRFSGGGSGTEFILTISSLQPEDFATYYCQQYNAYPWTFGQGTKLEIK
notes: domain: γ2 heavy chain Fd region; The Fd part is from human γ2; also called Qβ#3 Fab; pCB15-Qb#3-Fab product; not shown: human κ light chain constant region (vector pCMV-LC)
B4: Qb#5 whole IgG2 (antibody, V domains shown)
VH: EVQLVQSGPGLVKPSETLSLTCTVSGGSISSTSYSWGWIRQPPGKGLEWIATVSYSGRSYSNPSLKSRVTTSVDTSKNQFSLRLGSVTAADTAVYYCARLYYIWRSYHSGRFDYWGQGTLVPVSS
VL: ELVLTQPPSVSGAPGQRVSISCTGSSSNIGARYDVHWYQQLPGTAPKLLIYGNTNRPSGVPDRFSGSKSGSSASLAITGLQAEDEADYYCQSYDRSLSGVVFGGGTKLTVLG
notes: domain: γ2 heavy chain constant region; also called Qβ#5 IgG2; pCB15-Qb#5-IgG2 product; not shown: human κ light chain constant region (vector pCMV-LC)
B5: Qb#8 whole IgG2 (antibody, V domains shown)
VH: QVQLQESGGGWVQSGGSLRLSCAASGFSFSSYAMSWVRQAPGKGLEWVSAMSPIGGSTFYADSVKGRFTISRDNSKNTLFLQMNSLRAEDTAVYYCAKDAVVTAVGLGRYFDLWGRGTLVSVSS
VL: ELVVTQEPSVSGAPGQSVTISCTGGSSNIGASYDVHWYKQLPGAAPILLIYANYIRPSGVPDRFSASKSGTSASLAITGLQAEDEADYYCQSYDSSLSGVVFGGGTKLTVLG
notes: domain: γ2 heavy chain constant region; also called Qβ#8 IgG2; pCB15-Qb#8-IgG2 product; not shown: human κ light chain constant region (vector pCMV-LC)
B6: Qb#3 whole IgG2 (antibody, V domains shown)
VH: QVQLQESGPGLVKPSETLSLTCTVSGGSISSGNYYWSWIRQTPEKGLEWLGYVHYTGSSKLNPSLKSRVTISVDTYTNQFSLSLSSMTAADTAVYYCARGKNCANDICYIGSWFDPWGQGTLVTVSS
VL: ELVMTQSPSSLSASVGDRVTITCRASQGVSRALAWYQQKPGNPPKLLIYDASNLQSGVPSRFSGGGSGTEFILTISSLQPEDFATYYCQQYNAYPWTFGQGTKLEIK
notes: domain: γ2 heavy chain constant region; also called Qβ#3 IgG2; pCB15-Qb#3-IgG2 product; not shown: human κ light chain constant region (vector pCMV-LC)
B7: Qb#2 whole IgG2 (antibody, V domains shown)
VH: EVQLLESGPGLVKPSETLSLTCTVSGGSISSGNYYWSWIRQTPEKGLEWLGYVHYTGSSKLNPSLKSRVTISVDTYTNQFSLSLSSMTAADTAVYYCARGKNCANDICYIGSWFDPWGQGTLVTVSS
VL: ELGLTQPPSVSGAPGQRVTISCTGSSSNIGRFDVHWYQQLPGTAPKLLIYGNTNRPSGVPDRFSGSKSGSSASLAITGLQAEDEADYYCQSYDRSLSGVVFGGGTQLTVLG
notes: domain: γ2 heavy chain constant region; also called Qβ#2 IgG2; pCB15-Qb#2-IgG2 product
B8: scFv-Qb#5-Fc (Fc fusion)
scFv: DADPAQAAELVLTQPPSVSGAPGQRVSISCTGSSSNIGARYDVHWYQQLPGTAPKLLIYGNTNRPSGVPDRFSGSKSGSSASLAITGLQAEDEADYYCQSYDRSLSGVVFGGGTKLTVLGGGSSRSSSSGGGGSGGGGEVQLVQSGPGLVKPSETLSLTCTVSGGSISSTSYSWGWIRQPPGKGLEWIATVSYSGRSYSNPSLKSRVTTSVDTSKNQFSLRLGSVTAADTAVYYCARLYYIWRSYHSGRFDYWGQGTLVPVSSASTKGPSVTSGQAGRKLTHTCPPCPAPEAEGAPSVFLFPPKPKDTLMISRTPEVTCVVVDVSHEDPEVKFNWYVDGVEVHNAKTKPREEQYNSTYRVVSVLTVLHQDWLNGKEYKCKVSNKALPASIEKTISKAKGQPREPQVYTLPPSRDELTKNQVSLTCLVKGFYPSDIAVEWESNGQPENNYKTTPPVLDSDGSFFLYSKLTVDKSRWQQGNVFSCSVMHEALHNHYTQKSLSLSPGK
notes: The entry may contain the signal peptide; also called pCEP/scFvQb#5-Fc product
B9: scFv-Qb#3-Fc (Fc fusion)
scFv: DADPAQAAELVMTQSPSSLSASVGDRVTITCRASQGVSRALAWYQQKPGNPPKLLIYDASNLQSGVPSRFSGGGSGTEFILTISSLQPEDFATYYCQQYNAYPWTFGQGTKLEIKGGSSRSSSSGGGGSGGGGQVQLQESGPGLVKPSETLSLTCTVSGGSISSGNYYWSWIRQTPEKGLEWLGYVHYTGSSKLNPSLKSRVTISVDTYTNQFSLSLSSMTAADTAVYYCARGKNCANDICYIGSWFDPWGQGTLVTVSSASTKGPSVTSGQAGRKLTHTCPPCPAPEAEGAPSVFLFPPKPKDTLMISRTPEVTCVVVDVSHEDPEVKFNWYVDGVEVHNAKTKPREEQYNSTYRVVSVLTVLHQDWLNGKEYKCKVSNKALPASIEKTISKAKGQPREPQVYTLPPSRDELTKNQVSLTCLVKGFYPSDIAVEWESNGQPENNYKTTPPVLDSDGSFFLYSKLTVDKSRWQQGNVFSCSVMHEALHNHYTQKSLSLSPGK
notes: The entry may contain the signal peptide; also called pCEP/scFvQb#3-Fc product
B10: scFv-Qb#8-Fc (Fc fusion)
scFv: DADPAQAAELVVTQEPSVSGAPGQSVTISCTGGSSNIGASYDVHWYKQLPGAAPILLIYANYIRPSGVPDRFSASKSGTSASLAITGLQAEDEADYYCQSYDSSLSGVVFGGGTKLTVLGGGSSRSSSSGGGGSGGGGQVQLQESGGGWVQSGGSLRLSCAASGFSFSSYAMSWVRQAPGKGLEWVSAMSPIGGSTFYADSVKGRFTISRDNSKNTLFLQMNSLRAEDTAVYYCAKDAVVTAVGLGRYFDLWGRGTLVSVSSASTKGPSVTSGQAGRKLTHTCPPCPAPEAEGAPSVFLFPPKPKDTLMISRTPEVTCVVVDVSHEDPEVKFNWYVDGVEVHNAKTKPREEQYNSTYRVVSVLTVLHQDWLNGKEYKCKVSNKALPASIEKTISKAKGQPREPQVYTLPPSRDELTKNQVSLTCLVKGFYPSDIAVEWESNGQPENNYKTTPPVLDSDGSFFLYSKLTVDKSRWQQGNVFSCSVMHEALHNHYTQKSLSLSPGK
notes: The entry may contain the signal peptide; also called pCEP/scFvQb#8-Fc product
B11: scFv-Qb#2-Fc (Fc fusion)
scFv: DADPAQAAELGLTQPPSVSGAPGQRVTISCTGSSSNIGRFDVHWYQQLPGTAPKLLIYGNTNRPSGVPDRFSGSKSGSSASLAITGLQAEDEADYYCQSYDRSLSGVVFGGGTQLTVLGGGSSRSSSSGGGGSGGGGEVQLLESGPGLVKPSETLSLTCTVSGGSISSGNYYWSWIRQTPEKGLEWLGYVHYTGSSKLNPSLKSRVTISVDTYTNQFSLSLSSMTAADTAVYYCARGKNCANDICYIGSWFDPWGQGTLVTVSSASTKGPSVTSGQAGRKLTHTCPPCPAPEAEGAPSVFLFPPKPKDTLMISRTPEVTCVVVDVSHEDPEVKFNWYVDGVEVHNAKTKPREEQYNSTYRVVSVLTVLHQDWLNGKEYKCKVSNKALPASIEKTISKAKGQPREPQVYTLPPSRDELTKNQVSLTCLVKGFYPSDIAVEWESNGQPENNYKTTPPVLDSDGSFFLYSKLTVDKSRWQQGNVFSCSVMHEALHNHYTQKSLSLSPGK
notes: also called pCEP/scFvQb#2-Fc product

This passage reports EC50 results from patent publication US20100292089A1 (CYTOS BIOTECHNOLOGY, published 2010).

The target in the first test is T1, Qβ (RNA bacteriophage Qbeta, UniProt P03615 2-133).
T1 construct: The description says it is a VLP of RNA bacteriophage Qbeta; also called Qbeta; VLP of RNA bacteriophage Qbeta
T1 sequence: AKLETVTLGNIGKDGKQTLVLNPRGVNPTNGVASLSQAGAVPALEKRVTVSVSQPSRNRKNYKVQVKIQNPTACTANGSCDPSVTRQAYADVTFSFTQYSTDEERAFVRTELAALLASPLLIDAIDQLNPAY
Kind of test: ELISA, Qβ coated, purified Fab; range of concentrations of half-maximal binding.
B1 came in with a half-maximal effective concentration (EC50) of 82 to 236 pM.

In turn, B2 showed an EC50 of 261 to 454 pM.

B3 showed an EC50 of 77 to 239 pM.

Another test addresses T1, Qβ. Kind of test: ELISA, Qβ coated, purified IgG2; range of concentrations of half-maximal binding.
B4 gave an EC50 of 21 to 54 pM.

For B5, the EC50 lay in the range of 456 to 1100 pM.

The molecule B6 returned an EC50 of 15 to 37 pM.

On to B7, for which the half-maximal effective concentration (EC50) lay in the range of 25 to 56 pM.

The next test concerns the target T1, Qβ. Kind of test: ELISA, Qβ coated, purified scFv-Fc titrated; concentration of half-maximal binding.
The molecule B8 showed an EC50 of 52 pM. This counts as picomolar.

Molecule B9 had an EC50 of 35 pM.

B10: the EC50 worked out at 163 pM.

B11 showed a concentration for a half-maximal effect (EC50) of 51 pM.
